Results on one molecule are retold here after publication PMC9243169.

One test addresses T1, LANTVATL peptide.
T1 chain: LANTVATL
Kind of test: size-exclusion chromatography of in vitro assembled heavy chain/β2m/ligand complex. The note with it: chain shown with the change; parent: est. 160; read off a plot.

Test [1] concerns the target T2, N-myristoylated 4-mer lipopeptide Myr-GAAL.
T2 chain: GAAL
The test is described as above. The note with it: chain shown with the change; parent: est. 160; read off a plot.

B1: HLA-C∗14:02 heavy chain, ectodomain (soluble form) S9Y (protein)
chain: AGSHSMRYFYTSVSRPGRGEPRFIAVGYVDDTQFVRFDSDAASPRGEPRAPWVEQEGPEYWDRETQKYKRQAQTDRVSLRNLRGYYNQSEAGSHTLQWMFGCDLGPDGRLLRGYDQSAYDGKDYIALNEDLRSWTAADTAAQITQRKWEAAREAEQRRAYLEGTCVEWLRRYLENGKETLQRAEHPKTHVTHHPVSDHEATLRCWALGFYPAEITLTWQWDGEDQTQDTELVETRPAGDGTFQKWAAVVVPSGEEQRYTCHVQHEGLPEPLTLRWEP
Consider B1, for which the response with LANTVATL peptide was found to be 180 mAU; in test [1], 30 mAU.
